Measured values taken from the nanobody polyreactivity screen of Harvey et al. (2022).

Assay: yeast display, Sf9 membrane polyspecificity reagent, FACS + sequencing; frameworks hold sequencing errors
Summary of the method: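 A synthetic nanobody library was expressed on Saccharomyces cerevisiae BJ5465 by galactose induction for 36–48 hours. The library was stained for 1 hour at 4 °C with 10% biotinylated, detergent-solubilized Sf9 membrane reagent and enriched with streptavidin microbeads before FACS. Low and high (top ~1%) gates were set on anti-HA fluorescence for expression and streptavidin fluorescence for reagent binding, and each polyreactivity label reflects the gate of origin.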

Sequence	polyreactivity (PSR sort gate)
QVQLVESGGGLVQAGGSLRLSCAASGITFNTYAMGWYRHAPGKERELVAVITWSDGGTYYADSVKGRFTISRDNAKNTVYLQMNSLKPEDTAVYYCAADYDWGYDYWGQGTQVTVSS	low polyreactivity
RVQLQESGGGLVQAGGSLRLSCAASGTIFIRGDMGWYRQAPGKEREFVASIDTGSNTYYADSEKGRFTISRDNAKNAVYLQMNCLKPGDTAVYYCVVDYQLSGRLRYWGQGTQVTLSS	low polyreactivity
QVQLVESGGGLVQAGGSLRLSCAASGITFWNNAMGWYRQAPGKERELVATISSNGGRTYYADSVKGRFTISRDNAKNTVYLQMNSLKPEDTAVYYCNAARRAYGYNYWGQGTQVTVSS	low polyreactivity
QVHLVDSGGGLVQAGGSLRLSCAASGSTFDYNAMGWYRQAPGQESELVAAISWRGGGTYYADSVKGRFTISRDNAKTTVYLQMNSLKPEDTAVYYCAASAYKGTGAEFDYWRQGTQVTVSS	low polyreactivity
QVQLVESGGGLVQAGGSLRLSCAASGIIFPFYMGWYRQAPGKEREFVADITYSGGSTYYADSVKGRFTISRDNAKNTVYLQMNSLKPEDTAVYYCAAKFYWRGQSFRSGNFYWGQGTQVTVSS	high polyreactivity
QVQLVESGGGLVQAGGSLRLSCADSGRTQWSYAIGWYRQAPGKERELVATISYSGGSTYYADSVKGRFTISRDNAKNTVYLQMNSLKPEATAVYYCNAVARWYVLQVYEYDYWGEGTQVTVSS	low polyreactivity
QVQLVESGGGLVQAGGRLRLSCAASGTIFYYNAMGWYRQAPGKERELVAVISQSGTSTYYADSVKGRFTNSRDNAKNTVYLQMNSLKPEDTAVYYCAADSRHGSIMDYWGLGTQVTVSS	low polyreactivity
QVQLVESGGGLVQAGGSLRLSCAASGRIFNGNAMVWYRQAPGKERELVASINVRGGRTYYADSVKGRFTISRDNAKNTVYLQMNSLKPEDTAVYYWYADYAWYQRKSTVDYDYWGQVTQVTVSS	low polyreactivity
QVQLVESGGGLVQAGGSLRLSCAASGSTFKYYGMGWYRQAPGKERELVAAITSGGSTYDADSVKGRFTISRDNAKTTVYLQRNSLKPEDTAVYYCNTQYYLYYPADYDYWGQGTQVTVSS	low polyreactivity
QVQLLESGGGLVQAGGILRLSCSASGITFSVYDMGCYRQAPGKERELVASISSGGTSTYYADSVKGRFTISRDNAKNTVYFQMNSLKPEDTAVYYGAAYSYFNGDQYSYDYLGQGTQVTVSS	low polyreactivity
QVQLVESGGGLVQAGGSLRLSCAASGITFGRNAMGWYRQAPGKERELVAAISRGGSTNYADSVKGRFTISRDNAKNTVYLQMNSLKPEDTAVYYCAAQYKYRRYPKVAFEYWGQGTQVTVSS	high polyreactivity
QVQLVESAGGLVQAGGSLRLSCAASGSICTKYAMGWYRQAPGKERELVAAISASGGSTYYADSVKGRFTISRDNAKNTVYLQMNSLKPEDTAVYYCAARYWVREDYWGQGTQVTVSS	high polyreactivity
QDLLVESGGGLVQAGGSLRLRCAASGITFAFYTMGWYRQAPGKPSELVTAISYSGGRTYNADSVKGRFTISRDNAKYTVYVQMLSLKPEDTAVYYCNTRYRGSYDYWGQGTQVTVSS	high polyreactivity
QVHLVDSGVGLDQAGGILRLSCAASGSTFGFYALGWYRQSPGKERELVAAINSTGGSTYYADSVKGRFTISRDNAKNTVYLQMNSLKPEDTAVYYCNVDLYSLYDWGQGTQVTVSS	high polyreactivity
QVQLVESGGGLVQAGGSLRLSCAASGFTIYSYAMGWYRQAPGKERELVAAISSGGSTYYADSVKGRFTISRDNAKNTVYLQMNSLKPEDTAVYYCARRYQVVWYYKYDYWGQGTQVTVSS	high polyreactivity
QVQLVESGGGLVQAGGSLRLSCAASGYIFIVNAMGWYRQAPGKERELVAAINSSGGNTYYADSVKGRFTISRDNAKNTVYLLMNSLKPEDTAVYYCAADQAKDISVEYDYWGQGTQVTVSS	low polyreactivity
QVQLVESGGGLVQAGGSLRLSCAASGSTFNRYAMGWYRQAPGKERELVAAITSTGGTNYADSVKGRFTISLDNAKNTVYLQMYSLKPEDTAVYYCAKRWLRGRSNYWGHGTQVTVSS	high polyreactivity
QVQLVESGGGLVQAGGSLRLSCAASGSTFGRYAMGWSRQAPGKERELVAAITTSGRRTRYADSVKGRFTISRDNAKNTVYLQMNSLKPEDTAVYYCAASGAQGPDYDYWGQGTQVTVSS	low polyreactivity
QVQLVESGGGLVQAGGSLRLSCAASGNTFIPNAMGWSRQAPGKETELVAAIRASGGSTYYADSVKGRFTISRDNAKNTVYLQMNSLKPEDTAVYYCNADIWYKTYDYWGQGTQVTVSS	low polyreactivity
QVQLVESGGGLVQAGGSLRLTCAASGSIFTGYTMGWYRQAPGKERELVASISRRGGRTYYADSVKGRFTISRDNAKNTVYLQMNSLKPEDTAVYYCAVDRVPWRYQDSYNYWGQGTQVTVSS	high polyreactivity
QVQLVESGGGLVQAGGSLRLSCAASGSIFGNTMGWYRQAPGKEWEFVAAISSTGGNTYYADSVKGRFTISRDNAKITVYLQMNSLKPEDTAVYYCNRRYRYRFGYWGQGTQVTVSS	high polyreactivity
QVQLVESGGGLVQAGGSLRLSCAASGSTFTPYAMGWYRQAPGKERELVAGITGNGGSTRYADSVKGRFTISRDNAKNTVYLQMNSLKTEDTAVYYCAARWTRERYRTSYYSWGQGTQVTVSS	high polyreactivity
